Values of other authors as cited in paper PMC4732575.

Tests used:
LDLR (Homo sapiens) = LDLR (Homo sapiens) (UniProt P01130)
CD36 (Homo sapiens) = CD36 (Homo sapiens) (UniProt P16671)
Sequence of CD36 (Homo sapiens) (P16671 2-472): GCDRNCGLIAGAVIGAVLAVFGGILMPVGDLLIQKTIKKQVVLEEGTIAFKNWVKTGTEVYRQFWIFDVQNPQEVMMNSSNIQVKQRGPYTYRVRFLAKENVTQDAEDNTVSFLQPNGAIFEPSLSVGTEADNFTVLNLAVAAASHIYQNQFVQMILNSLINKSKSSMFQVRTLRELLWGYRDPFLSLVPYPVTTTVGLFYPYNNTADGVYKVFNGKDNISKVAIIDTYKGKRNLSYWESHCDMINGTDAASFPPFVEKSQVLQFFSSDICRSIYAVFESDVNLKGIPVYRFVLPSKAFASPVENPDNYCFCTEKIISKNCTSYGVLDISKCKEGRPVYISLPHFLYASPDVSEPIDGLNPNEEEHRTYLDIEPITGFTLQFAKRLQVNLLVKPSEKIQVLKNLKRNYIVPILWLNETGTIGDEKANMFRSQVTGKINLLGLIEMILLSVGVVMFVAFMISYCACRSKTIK

Sequence of PCSK9 (Q8NBP7 153-692): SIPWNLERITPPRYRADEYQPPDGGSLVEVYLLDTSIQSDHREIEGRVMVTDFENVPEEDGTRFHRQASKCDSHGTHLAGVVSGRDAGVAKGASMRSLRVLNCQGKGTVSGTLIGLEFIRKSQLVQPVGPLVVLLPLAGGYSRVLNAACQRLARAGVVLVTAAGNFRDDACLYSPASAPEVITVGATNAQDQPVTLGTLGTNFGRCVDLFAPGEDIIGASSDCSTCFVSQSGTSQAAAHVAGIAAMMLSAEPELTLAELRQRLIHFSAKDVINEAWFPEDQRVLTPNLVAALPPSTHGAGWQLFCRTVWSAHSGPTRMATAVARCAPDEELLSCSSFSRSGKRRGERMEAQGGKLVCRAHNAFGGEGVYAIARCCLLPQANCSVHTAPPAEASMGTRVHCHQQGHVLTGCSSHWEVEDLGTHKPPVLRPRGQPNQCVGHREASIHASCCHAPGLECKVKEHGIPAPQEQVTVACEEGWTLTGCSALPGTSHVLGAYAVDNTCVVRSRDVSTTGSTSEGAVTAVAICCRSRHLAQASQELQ
Sequence of LDLR (Homo sapiens) (P01130 22-788): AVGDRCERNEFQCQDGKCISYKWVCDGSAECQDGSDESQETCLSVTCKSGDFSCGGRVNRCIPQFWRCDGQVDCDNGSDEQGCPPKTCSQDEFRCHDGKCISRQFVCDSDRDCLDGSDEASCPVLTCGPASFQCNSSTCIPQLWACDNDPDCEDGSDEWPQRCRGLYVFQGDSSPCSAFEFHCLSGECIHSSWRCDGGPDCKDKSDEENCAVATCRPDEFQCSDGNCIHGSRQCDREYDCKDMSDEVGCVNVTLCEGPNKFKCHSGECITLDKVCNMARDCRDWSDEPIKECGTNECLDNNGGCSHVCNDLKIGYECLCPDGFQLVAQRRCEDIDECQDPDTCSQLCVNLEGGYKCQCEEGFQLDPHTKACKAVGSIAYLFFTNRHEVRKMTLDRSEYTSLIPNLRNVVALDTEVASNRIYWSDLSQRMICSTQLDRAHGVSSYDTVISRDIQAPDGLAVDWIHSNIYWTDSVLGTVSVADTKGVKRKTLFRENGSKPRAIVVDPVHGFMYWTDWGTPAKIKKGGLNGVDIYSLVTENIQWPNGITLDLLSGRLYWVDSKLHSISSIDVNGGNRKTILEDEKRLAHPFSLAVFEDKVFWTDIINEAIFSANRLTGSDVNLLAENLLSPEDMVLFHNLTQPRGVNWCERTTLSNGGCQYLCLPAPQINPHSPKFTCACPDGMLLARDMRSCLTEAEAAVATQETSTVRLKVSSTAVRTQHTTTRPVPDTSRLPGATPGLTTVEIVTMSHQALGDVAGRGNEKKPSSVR

- Kd (LDLR (Homo sapiens)): 1000 nM
- Kd (CD36 (Homo sapiens)): 1000 nM
Substance: PCSK9 (from UniProt Q8NBP7)
